Measurements as given in patent publication US9073976B2, “ND2 peptides and methods of treating neurological disease” (NoNO Inc., priority 2010, dated 2015).
“Also recorded” adds a separate entry of the source. No end group written: not given here. *: point of attachment. Myristoyl = CCCCCCCCCCCCCC(=O)*

What was measured:
ND2 310-321 = biological target: T1, ND2 310-321 (Homo sapiens, UniProt P03891); test: Dot blot of Src fragments probed with biotinylated ND2 310-321; assay type: binding; conditions: FIG. 5A
T1 construct: 7; NVKMKWQFEHTK
Description: (§1) Src40-49-Tat indicate a fusion peptide in which the human HIV-1 tat protein transduction domain [[…]] […] (SEQ ID NO:10). […] The peptides were plated at a concentration of ˜5 uM.

[1] = test system: PACAP-enhanced NMDA-evoked currents in CA1 neurons; test: Patch clamp of PACAP-enhanced NMDA-evoked currents in isolated CA1 neurons; assay type: cell-based, rat; conditions: PACAP 1 nM in patch pipette, peptide 6 mM, 25 to 30 minutes after PACAP
Text: Pituitary Adenylate Cyclase-activating Polypeptide (PACAP) selectively increases NMDA receptor mediated responses in rat neurons, and it is thought that this peptide is involved in the regulation of synaptic plasticity as well as both long term potentiation and depression. To examine the effect of ND2 310-321 and Src 40-49 on PACAP-enhanced NMDA-evoked currents, isolated CA1 neurons were subjected to a series of patch clamp experiments in the presence or absence of these peptides. […] ND2 310-321 can prevent PACAP-induced potentiation. Similar experiments were also performed using the Src-selective inhibitory peptide, Src(40-58) (14 mM), or the truncated peptide, Src(40-49) (6 mM). The responses prior to application of PACAP were normalized the responses at 25 to 30 minutes following application of PACAP. The bar graph indicates three groups of recordings from neurons and indicated the relative change in peak NMDAR currents under the three conditions. ND2 310-321, but not Src40-49, inhibits PACAP-enhanced NMDA-evoked currents. Thus, ND2 310-321 can be used to block PACAP enhanced NMDA-evoked signaling and can therefore be used in many neurological diseases and disorders associated with impaired with long term potentiation (e.g., aging, Alzheimer's, neurodegenerative diseases and neuronal disorders affect memory).

Src 40-58 [2] = biological target: T2, Src 40-58 (Homo sapiens, UniProt P12931, A55V); test: Dot blot of GST-ND2 fragments probed with biotinylated Src 40-58; assay type: binding; conditions: GST-fusion proteins spotted 1-10 ug, biotinylated peptide ~15 ug/ml, 2 hours
T2 construct: KPASADGHRG P SAAFVPAA
Description: GST-fusion proteins were designed using different fragments of ND2 and expressed and purified using standard protocols. These purified proteins were spotted onto membranes for probing with biotinylated Src 40-58 peptide or a scrambled control peptide (sSrc 40-58). In general, 1-10 ug of peptide or recombinant protein was spotted onto nitrocellulose and dried overnight. Membranes were blocked with 5% milk for 1 h at room temperature, then incubated with biotinylated peptides (˜15 ug/ml) for 2 hours the washed using standard wash buffers. Bound probe was detected using a short incubation with streptavidin conjugated to horseradish peroxidase (SA-HRP) and standard detection reagents, predominantly chemiluminescence kits. […] Further GST-constructs were made to narrow the core Src binding regions (FIG. 2A). Dot blots were made with these constructs and tested for their ability to capture biotinylated Src 40-58 (FIG. 2B).
(§2) Further GST constructs were made to identify the amino acid sequences in ND2.1.4 responsible for binding to Src 40-58 (FIG. 3A). Although these sequences are minimally responsible for binding, sequences corresponding to ND2 these sequences as well as those flanking them could be used for inhibition of the Src-ND2 interaction. […] As before, interactions with all of the fragments were confirmed in an ELISA assay (FIG. 3C), and the top binders were ND2 310-321, ND2 289-309, ND2 299-318, ND2 307-321 and full length ND2. […] All fragments tested were able to bind Src40-58 more strongly than the negative control peptide sSrc 40-58.

Tat-ND2 310-321 = biological target: T3, Tat-ND2 310-321 (Homo sapiens, UniProt P03891); test: ELISA plate coated with Tat-ND2 310-321, binding of biotinylated Src peptides; conditions: FIG. 5C
T3 construct: 10; Tat-ND2 310-321; […]
Description: as §1

[3] = biological target: T4, binding of biotinylated Src40-49 to ND2 310-321 (Homo sapiens, UniProt P03891+P12931); test: Competition ELISA, binding of biotinylated Src40-49 to coated ND2 310-321; conditions: FIG. 5D, FIG. 7
T4 construct: 7; NVKMKWQFEHTK; KPASADGHRG
Description: Competition ELISAs were also performed. […] In a similar manner, ND2 constructs bearing amino acid sequences from the 300-321 region are able to act as inhibitors of the interaction between ND2 and Src.

Src 40-58 [4] = biological target: T2, Src 40-58; test: ELISA of coated ND2 constructs with biotin-Src 40-58; assay type: binding; conditions: biotin-Src 40-58 at 6 uM
Description: GST-ND2, GST-ND2.1 or GST-ND2.1.4 were coated onto ELISA wells by incubating at the indicated concentration under standard conditions. Wells were blocked using 5% milk, and either biotin-Src 40-58 (FIG. 2C top) or biotin-sSrc 40-58 (bottom) were incubated at 6 uM.
as §2

rats subjected to 3PVO = test: Three pial vessel occlusion (3PVO) model of stroke, infarct volume; assay type: in vivo, rat
Description: The efficacy of ND2 inhibitors in the treatment of stroke was examined using the three pial vessel occlusion (3PVO) model of stroke. This is a permanent model of stroke that creates small but consistent infarcts at 24 hours.
Male Sprague Dawley rats (n=10 in each group) were surgically subjected to permanent occlusion of the pial vessels. One hour post-surgery, animals were given an intravenous injection of Saline, Tat-NR2B9c (Aarts et al, Science, 2002), Src 40-49-Tat or Tat-ND2 310-321 and allowed to further recover in their cages. 24 hours after surgery, brains were harvested, sliced and incubated with TTC to visualize the areas of infarction. The infarct volume of each animal was determined, as well as the average volumes for each group of ten.
Both peptides were myristoylated via an amide bond to the alpha-amino group of the N-terminal amino acid of the peptide.
Male Sprague Dawley rats (n=10 in each group) weighing between 230 and 290 g were used for this study. Experiments were performed on fasted rats (Free overnight access to water but not food). For permanent three pial vessel occlusion (3PVO) was performed as described previously (Forder J et al., 2005, supra). In brief, rats were anesthetized with a 0.5 ml/kg intramuscular injection of ketamine (100 mg/kg), acepromazine (2 mg/kg), and xylazine (5 mg/kg), supplemented with one-third of the initial dose as required. An anal temperature probe was inserted, and the animal was placed on a heating pad maintained at 37° C. The skull was exposed via a midline incision and scraped free of tissue. Using a dissecting microscope and a pneumatic dental drill, a 6- to 8-mm cranial window was made over the right somatosensory cortex (2 mm caudal and 5 mm lateral to bregma) by drilling a rectangle through the skull and lifting off the piece of skull while keeping the dura intact. The 3 pial arteriolar middle cerebral artery branches around the barrel cortex were selected and electrically cauterized through the dura. After the cauterizations, the scalp was sutured. […]

[5] = biological target: T5, ND2, Src, NMDAR subunits, and PSD95 in hippocampal neurons (Rattus norvegicus, UniProt P11662+Q9WUD9); test: Immunocytochemistry colocalization in 14DIV hippocampal neurons; assay type: cell-based; conditions: 1 uM peptide for 1 h, day 14 neurons
T5 construct: endogenous in cells; host or cells: primary hippocampal neurons from E17/E18 Wistar rats, 14 DIV
Description: A series of experiments was performed to examine the localization of ND2, Src, NMDAR subunits, and PSD95 in hippocampal neurons by immunocytochemistry in the presence of Tat, Tat-ND2 310-321, or Src 40-49-Tat. Briefly, hippocampal neurons were isolated from embryonic day #17/E18 Wistar rats, and cultured in neurobasal media containing coverslips with B27 and glutamax. Cells were then treated for 1 hr with luM peptide before fixing by standard methods. Proteins were visualized using specific antibodies and secondary antibodies coupled to fluorescent molecules. Colocalization of fluorescence was calculated by merging the images in Photoshop and calculating the % colocalized between pairs as the total colocalized fluorescence clusters divided by the total number of clusters (e.g., % colocalized ND2 with Src=(total colocalized)/(total ND2 clusters); % colocalized Src with ND2=(total colocalized)/(total Src clusters)).
Hippocampal neurons cultured on coverslips were treated with 1 uM of Src 40-49-Tat, Tat-ND2 310-321 or Tat for 1 h at the day 14. Then neurons were incubated in 4% paraformaldehyde and 4% sucrose in phosphate-buffered saline (PBS) for 10 minutes followed by 5 minutes […] at room temperature (RT). Cells were permeabilized with 0.25% Triton X-100 in PBS for 5 minutes and by treatment with 5% donkey serum in PBS for 30 minutes at RT. The cultures were incubated with a mixture of the primary antibodies, raised in various species, in 0.25% Triton X-100 PBS for 2 hours at RT, washed, and incubated for 1 hour at RT with a mixture of species-specific secondary antibodies all raised in donkey and conjugated to either Texas Red, or FITC fluorophores (1:200 dilution in 0.25% Triton X-100 PBS). The coverslips were washed with PBS and mounted using ProLong Gold antifade reagent (Invitrogen). Images were collected using a 60× pan-fluor objective on a Nikon Eclipse TE 200 microscope. The images were analyzed with PhotoShop 7 (Adobe, San Jose, Calif.). Brightness and contrast were adjusted, sharpened using the unsharpen mask tool, and the images were merged for color colocalization.
For quantification of the colocalization, the maximum intensities of the fluorophore channels were normalized and the background fluorescence of each channel seen in the dendrites was subtracted, the color images were merged. Two clusters in two different channels were considered colocalizing when at least 66% of the surface of one clusters in one of the two channels overlapped with a clusters in the other channel. For each combination of antibodies, three independent immunofluorescence experiments were done. Each measurement was taken from a 50-m-long dendritic segment (with an average width of 2 m). Colocalization was expressed as the percent of the total clusters analyzed.

Src 40-49 [6] = biological target: T6, Src 40-49 (Homo sapiens, UniProt P12931); test: Dot blot of ND2 constructs binding Src 40-49; conditions: FIG. 4A
T6 construct: KPASADGHRG
Text: (§3) We next examined the ability of the ND2 constructs to bind to a shorter version of the Src binding domain—Src 40-49 (FIGS. 4A, B). ND2 310-321, ND2 307-318, and ND2 310-318 were the top binders of Src 40-49 by dot blot analysis (FIG. 4A).

Src 40-49 [7] = biological target: T6, Src 40-49; test: ELISA of ND2 constructs binding Src 40-49; conditions: FIG. 4B
Text: as §3

[8] = Arterial blood pressure after rapid high-dose intravenous bolus; conditions: ~25 mg/kg bolus injection into the tail vein
Description: Rats with surgically implanted devices to measure arterial pressure were dosed with ˜25 mg/kg of the respective peptides as a bolus injection into the tail vein at 10 minutes post monitoring.

KPASADGHRG [Src40-49]
binding of biotinylated ND2 310-321 (dot blot) (ND2 310-321): bound ND2 310-321 | effect on PACAP-enhanced NMDA-evoked currents ([1]; listed as Src 40-49): does not

ITLLPMSNNVKMKWQFEHTK [ND2 302-321]
binding of biotinylated Src 40-58 (dot blot) (Src 40-58 [2]): binding was seen

bio-Src 40-49: biotinylated Src 40-49 peptide (KPASADGHRG; also: biotinylated, position not given here)
binding to coated Tat-ND2 310-321 (ELISA) (Tat-ND2 310-321): able to bind in a concentration dependent manner

YGRKKRRQRRRKPASADGHRG [Tat-Src40-49]
inhibition of binding of biotinylated Src40-49 to ND2 310-321 (competition ELISA) [3]: inhibited | binding of biotinylated ND2 310-321 (dot blot) (ND2 310-321): bound ND2 310-321

NLYFYLRLIYSTSITLLPMSNNVKMKWQFEHTK (not fully specified) [ND2.1.4, GST-fusion protein of ND2 fragment AA 289-321]
binding of biotinylated Src 40-58 (dot blot) (Src 40-58 [2]): most effective sub fragment for binding Src 40-58 | binding of biotinylated Src 40-58 (dot blot) (Src 40-58 [2]; listed as ND 2.1.4): better than ND2.1.3 | binding of biotin-Src 40-58 (ELISA) (Src 40-58 [4]): concentration-dependent manner

myristoyl- MSNNVKMKWQFEHTK (Myristoyl-MSNNVKMKWQFEHTK) [Myr2-ND2]
protection against damage from the stroke, second experiment (FIG. 22) (rats subjected to 3PVO; given intravenously 1 hour after onset of stroke, relative to Tat-ND2): equivalent or superior protection

YGRKKRRQRRR [Tat]
colocalization of Src and ND2 [5]: does not

MSNNVKMKWQFE [ND2 307-318]
binding of Src 40-49 (dot blot) (Src 40-49 [6]): top binders; also recorded: strong binding

NVKMKWQFEHTK [ND2 310-321]
binding of Src 40-49 (dot blot) (Src 40-49 [6]): top binders; also recorded: strong binding | binding of biotinylated Src 40-58 (dot blot) (Src 40-58 [2]): binding with high relative affinity | binding of biotin-Src 40-58 (ELISA) (Src 40-58 [4]): top binders | binding of Src 40-49 (ELISA) (Src 40-49 [7]): strongest binding | effect on PACAP-enhanced NMDA-evoked currents [1]: inhibits

Bio-sSrc 40-49: biotinylated scrambled control peptide (GAAKRPSDGH; also: biotinylated, position not given here)
binding to coated Tat-ND2 310-321 (ELISA) (Tat-ND2 310-321): no binding was seen

NLYFYLRLIYSTSITLLPMSN [ND2 289-309]
binding of biotinylated Src 40-58 (dot blot) (Src 40-58 [2]): binding was seen | binding of biotin-Src 40-58 (ELISA) (Src 40-58 [4]): top binders

MSNNVKMKWQFEHTK [ND2 307-321]
binding of biotinylated Src 40-58 (dot blot) (Src 40-58 [2]): binding was seen | binding of biotin-Src 40-58 (ELISA) (Src 40-58 [4]): top binders

YGRKKRRQRRRNVKMKWQFEHTK [Tat-ND2 310-321]
mean arterial blood pressure after bolus [8]: about one half of normal

STSITLLPMSNNVKMKWQFE [ND2 299-318]
binding of biotinylated Src 40-58 (dot blot) (Src 40-58 [2]): binding was seen | binding of biotin-Src 40-58 (ELISA) (Src 40-58 [4]): top binders

NVKMKWQFE [ND2 310-318]
binding of Src 40-49 (dot blot) (Src 40-49 [6]): top binders; also recorded: strong binding

YGRKKRRQRRRKLSSIESDV [Tat-NR2B9c]
mean arterial blood pressure after bolus [8]: about one half of normal | decline in infarct volume (rats subjected to 3PVO; 3 nmol/g intravenous one hour post-surgery, 24 hours after surgery, n=10): approximately 40%

B1: ND2.1: GST-fusion protein of ND2 sub fragment AA239-321 (protein)
chain: WLTPLIPSTLLSLGGLPPLTGFLPKWAIIEEFTKNNSLIIPTIMATITLLNLYFYLRLIYSTSITLLPMSNNVKMKWQFEHTK
modifications: left off: a dimerising Fc or GST
binding of biotinylated Src 40-58 (dot blot) (Src 40-58 [2]): can also bind Src 40-58; also recorded: better than ND2.1.3 | binding of biotin-Src 40-58 (ELISA) (Src 40-58 [4]): concentration-dependent manner
